Paper PMC6345753, “Curcumin inhibits the TGF-β1-dependent differentiation of lung fibroblasts via PPARγ-driven upregulation of cathepsins B and L”

Key:
Settings in all cases: protein: recombinant;recombinant; tags: ;; copies: 1;1; blunt
[1] = molecular target: T1, PPARγ;RXRα (human;human, UniProt P37231;P19793 1-505;1-462, |); assay: EMSA; two shifted complexes; anti-PPARγ supershift; 4 fmol labeled DNA, 3.7 pmol PPARγ, 3.9 pmol RXRα in 20 µl; 20 ng poly(dI.dC), 2.5% glycerol, 0.05% NP-40, 5 mM MgCl2; on ice 20 min; 4% native gel, 1x TBE, 4 °C; pH and salt not given
[2] = molecular target: T1, PPARγ;RXRα; assay: EMSA; positive control; anti-PPARγ supershift; 4 fmol labeled DNA, 3.7 pmol PPARγ, 3.9 pmol RXRα in 20 µl; 20 ng poly(dI.dC), 2.5% glycerol, 0.05% NP-40, 5 mM MgCl2; on ice 20 min; 4% native gel, 1x TBE, 4 °C; pH and salt not given
[3] = molecular target: T1, PPARγ;RXRα; assay: EMSA; labeled mutant probe; 4 fmol labeled DNA, 3.7 pmol PPARγ, 3.9 pmol RXRα in 20 µl; 20 ng poly(dI.dC), 2.5% glycerol, 0.05% NP-40, 5 mM MgCl2; on ice 20 min; 4% native gel, 1x TBE, 4 °C; pH and salt not given

B1: CAT B-PPRE (dsDNA)
DNA 1: TCTCCTGACCTGTGATCCGCCCGCCTCG
DNA 2: CGAGGCGGGCGGATCACAGGTCAGGAGA
Does B1 bind [1]?
Result: binds

B2: CAT L-PPRE (dsDNA)
DNA 1: TTATGGGGTAAAGGCAGAGGTAATTATT
DNA 2: AATAATTACCTCTGCCTTTACCCCATAA
Does B2 bind [1]?
Result: binds

B3: consensus PPRE (dsDNA)
DNA 1: CAAAACTAGGTCAAAGGTCA
DNA 2: TGACCTTTGACCTAGTTTTG
Does B3 bind [2]?
Result: binds

B4: CAT B-PPREmt (dsDNA)
DNA 1: TCTCCTGATGTAGGATACTCCTGCCTCG
DNA 2: CGAGGCAGGAGTATCCTACATCAGGAGA
Does B4 bind [3]?
Result: no binding

B5: CAT L-PPREmt (dsDNA)
DNA 1: TTATGCGGTACCCGCTTCGGTAATTATT
DNA 2: AATAATTACCGAAGCGGGTACCGCATAA
Does B5 bind [3]?
Result: no binding
